Patent EP4682162A1 (Neowise Biotechnology Co., Ltd., dated 2026)

B1: nwTCR-2228 (TCR, V domains shown)
V domain 1: QKEVEQNSGPLSVPEGAIASLNCTYSDRGSQSFFWYRQYSGKSPELIMFIYSNGDKEDGRFTAQLNKASQYVSLLIRDSQPSDSATYLCAGHTGNQFYFGTGTSLTVIP
V domain 2: EPEVTQTPSHQVTQMGQEVILRCVPISNHLYFYWYRQILGQKVEFLVSFYNNEISEKSEIFDDQFSVERPDGSNFTLKIRSTKLEDSAMYFCASREDGYEQYFGPGTRLTVTE
notes: TCR on T cells
B2: nwTCR-2286 (TCR, V domains shown)
V domain 1: GQQLNQSPQSMFIQEGEDVSMNCTSSSIFNTWLWYKQDPGEGPVLLIALYKAGELTSNGRLTAQFGITRKDSFLNISASIPSDVGIYFCAGPEDDKIIFGKGTRLHILP
V domain 2: DSGVTQTPKHLITATGQRVTLRCSPRSGDLSVYWYQQSLDQGLQFLIQYYNGEERAKGNILERFSAQQFPDLHSELNLSSLELGDSALYFCASSPWLQGGNEQFFGPGTRLTVLE
notes: TCR on T cells
B3: nwTCR-2418 (TCR, V domains shown)
V domain 1: DQQVKQNSPSLSVQEGRISILNCDYTNSMFDYFLWYKKYPAEGPTFLISISSIKDKNEDGRFTVFLNKSAKHLSLHIVPSQPGDSAVYFCAASGVRGQNFVFGPGTRLSVLP
V domain 2: DSGVTQTPKHLITATGQRVTLRCSPRSGDLSVYWYQQSLDQGLQFLIQYYNGEERAKGNILERFSAQQFPDLHSELNLSSLELGDSALYFCASSPWLAGGREQYFGPGTRLTVTE
notes: TCR on T cells
B4: nwTCR-1906 (TCR, V domains shown)
V domain 1: RKEVEQDPGPFNVPEGATVAFNCTYSNSASQSFFWYRQDCRKEPKLLMSVYSSGNEDGRFTAQLNRASQYISLLIRDSKLSDSATYLCVVTQAGTALIFGKGTTLSVSS
V domain 2: not shown
notes: TCR on T cells
B5: nwTCR-2316 (TCR, V domains shown)
V domain 1: TQLLEQSPQFLSIQEGENLTVYCNSSSVFSSLQWYRQEPGEGPVLLVTVVTGGEVKKLKRLTFQFGDARKDSSLHITAAQPGDTGLYLCAGVDNYGQNFVFGPGTRLSVLP
V domain 2: DAGVIQSPRHEVTEMGQEVTLRCKPISGHNSLFWYRQTMMRGLELLIYFNNNVPIDDSGMPEDRFSAKMPNASFSTLKIQPSEPRDSAVYFCASSIAALGFGELFFGEGSRLTVLE
notes: TCR on T cells
B6: nwTCR-2170 (TCR, V domains shown)
V domain 1: GQQLNQSPQSMFIQEGEDVSMNCTSSSIFNTWLWYKQDPGEGPVLLIALYKAGELTSNGRLTAQFGITRKDSFLNISASIPSDVGIYFCAGQASGTYKYIFGTGTRLKVLA
V domain 2: EAQVTQNPRYLITVTGKKLTVTCSQNMNHEYMSWYRQDPGLGLRQIYYSMNVEVTDKGDVPEGYKVSRKEKRNFPLILESPSPNQTSLYFCASSSGTSDEQYFGPGTRLTVTE
notes: TCR on T cells
B7: nwTCR-2285 (TCR, V domains shown)
V domain 1: KNEVEQSPQNLTAQEGEFITINCSYSVGISALHWLQQHPGGGIVSLFMLSSGKKKHGRLIATINIQEKHSSLHITASHPRDSAVYICALNSDSNYQLIWGAGTKLIIKP
V domain 2: EAQVTQNPRYLITVTGKKLTVTCSQNMNHEYMSWYRQDPGLGLRQIYYSMNVEVTDKGDVPEGYKVSRKEKRNFPLILESPSPNQTSLYFCATSPGTLYEQYFGPGTRLTVTE
notes: TCR on T cells
B8: nwTCR-2383 (TCR, V domains shown)
V domain 1: GIQVEQSPPDLILQEGANSTLRCNFSDSVNNLQWFHQNPWGQLINLFYIPSGTKQNGRLSATTVATERYSLLYISSSQTTDSGVYFCAVMPSGTYKYIFGTGTRLKVLA
V domain 2: EAQVTQNPRYLITVTGKKLTVTCSQNMNHEYMSWYRQDPGLGLRQIYYSMNVEVTDKGDVPEGYKVSRKEKRNFPLILESPSPNQTSLYFCASSPSSGYNEQFFGPGTRLTVLE
notes: TCR on T cells
B9: nwTCR-2523 (TCR, V domains shown)
V domain 1: RKEVEQDPGPFNVPEGATVAFNCTYSNSASQSFFWYRQDCRKEPKLLMSVYSSGNEDGRFTAQLNRASQYISLLIRDSKLSDSATYLCVVNRGSQGNLIFGKGTKLSVKP
V domain 2: DAGVTQSPTHLIKTRGQQVTLRCSPKSGHDTVSWYQQALGQGPQFIFQYYEEEERQRGNFPDRFSGHQFPNYSSELNVNALLLGDSALYLCASSLVDYEQYFGPGTRLTVTE
notes: TCR on T cells

Target: T1, labeled peptide-MHC (HLA-A*02:01) tetramer (…-HLA-A*02:01 tetramer) (human)
T1 construct: Labeled tetramer used for flow cytometry staining; also called pMHC; pMHC tetramer
Test: tetramer staining of sorted T cell clones, flow cytometry

binding result	Binder
binds	B1
binds	B2
binds	B3
binds	B4
binds	B5
binds	B6
binds	B7
binds	B8
binds	B9
